9 molecules from patent US20210380657A1 (COUNCIL OF THE QUEENSLAND INSTITUTE OF MEDICAL RESEARCH, published 2021) can be followed below.

The labels stand for the following.
B1: TCR Clone 5 of Donor R7Z in Table 3 (TCR, V domains shown)
V domain 1: GIQVEQSPPDLILQEGANSTLRCNFSDSVNNLQWFHQNPWGQLINLFYIPSGTKQNGRLSATTVATERYSLLYISSSQTTDSGVYFCAVVGNNDMRFGAGTRLTVKP
V domain 2: DSGVTQTPKHLITATGQRVTLRCSPRSGDLSVYWYQQSLDQGLQFLIQYYNGEERAKGNILERFSAQQFPDLHSELNLSSLELGDSALYFCASSVAPWYEQYFGPGTRLTVTE
notes: also called Donor R7Z Clone 5
B2: TCR Clone 1 of Donor B5F in Table 3 (TCR, V domains shown)
V domain 1: B1 V domain 1 with V90L, G91N
V domain 2: B1 V domain 2 with A96S, P97S, Y102F, T112L
notes: also called Donor B5F Clone 1
B3: TCR Clone 2 of Donor R7Z in Table 3 (TCR, V domains shown)
V domain 1: B1 V domain 1 with G91I
V domain 2: B1 V domain 2 with W98F
notes: also called Donor R7Z Clone 2
B4: TCR Clone 4 of Donor R7Z in Table 3 (TCR, V domains shown)
V domain 1: AQSVTQLDSHVSVSEGTPVLLRCNYSSSYSPSLFWYVQHPNKGLQLLLKYTSAATLVKGINGFEAEFKKSETSFHLTKPSAHMSDAAEYFCVVSYLGDTGRRALTFGSGTRLQVQP
V domain 2: EPEVTQTPSHQVTQMGQEVILRCVPISNHLYFYWYRQILGQKVEFLVSFYNNEISEKSEIFDDQFSVERPDGSNFTLKIRSTKLEDSAMYFCASSESGSPTGELFFGEGSRLTVLE
notes: also called Donor R7Z Clone 4
B5: TCR Clone 3 of Donor R7Z in Table 3 (TCR, V domains shown)
V domain 1: AQSVAQPEDQVNVAEGNPLTVKCTYSVSGNPYLFWYVQYPNRGLQFLLKYITGDNLVKGSYGFEAEFNKSQTSFHLKKPSALVSDSALYFCAVREASGANNLFFGTGTRLTVIP
V domain 2: SQTIHQWPATLVQPVGSPLSLECTVEGTSNPNLYWYRQAAGRGLQLLFYSVGIGQISSEVPQNLSASRPQDRQFILSSKKLLLSDSGFYLCAWSPQGNSPLHFGNGTRLTVTE
notes: also called Donor R7Z Clone 3
B6: TCR Clone 2 of Donor B5F in Table 3 (TCR, V domains shown)
V domain 1: GESVGLHLPTLSVQEGDNSIINCAYSNSASDYFIWYKQESGKGPQFIIDIRSNMDKRQGQRVTVLLNKTVKHLSLQIAATQPGDSAVYFCAETPGGYQKVTFGTGTKLQVIP
V domain 2: EAQVTQNPRYLITVTGKKLTVTCSQNMNHEYMSWYRQDPGLGLRQIYYSMNVEVTDKGDVPEGYKVSRKEKRNFPLILESPSPNQTSLYFCASSLWTSNSPLHFGNGTRLTVTE
notes: also called Donor B5F Clone 2
B7: TCR Clone 1 of Donor R7Z in Table 3 (TCR, V domains shown)
V domain 1: KQEVTQIPAALSVPEGENLVLNCSFTDSAIYNLQWFRQDPGKGLTSLLLIQSSQREQTSGRLNASLDKSSGRSTLYIAASQPGDSATYLCAVWAGGTSYGKLTFGQGTILTVHP
V domain 2: DVKVTQSSRYLVKRTGEKVFLECVQDMDHENMFWYRQDPGLGLRLIYFSYDVKMKEKGDIPEGYSVSREKKERFSLILESASTNQTSMYLCASSPAGRPGKPLHFGNGTRLTVTE
notes: also called Donor R7Z Clone 1
B8: TCR Clone 3 of Donor T3V in Table 3 (TCR, V domains shown)
V domain 1: AGQSLEQPSEVTAVEGAIVQINCTYQTSGFYGLSWYQQHDGGAPTFLSYNALDGLEETGRFSSFLSRSDSYGYLLLQELQMKDSASYFCAVPRRNNNARLMFGDGTQLVVKP
V domain 2: EAQVTQNPRYLITVTGKKLTVTCSQNMNHEYMSWYRQDPGLGLRQIYYSMNVEVTDKGDVPEGYKVSRKEKRNFPLILESPSPNQTSLYFCASSLNTGMNTEAFFGQGTRLTVVE
notes: also called Donor T3V Clone 3
B9: TCR Clone 1 of Donor T3V in Table 3 (TCR, V domains shown)
V domain 1: DQQVKQNSPSLSVQEGRISILNCDYTNSMFDYFLWYKKYPAEGPTFLISISSIKDKNEDGRFTVFLNKSAKHLSLHIVPSQPGDSAVYFCAASAGGQNFVFGPGTRLSVLP
V domain 2: DAGITQSPRHKVTETGTPVTLRCHQTENHRYMYWYRQDPGHGLRLIHYSYGVKDTDKGEVSDGYSVSRSKTEDFLLTLESATSSQTSVYFCAIRRGGSSYNEQFFGPGTRLTVLE
notes: also called Donor T3V Clone 1

Where a chain is given by its changes, count along the chain named. Names and notes keep the numbering of the source.

The assay concerns the target HLA-A*11:01-… (human; Epstein Barr Virus). Nature of the assay: HLA-peptide multimer staining and single-cell sorting of CD8+ T cells, paired TCR sequencing.
Description: T cell lines were labelled with an allophycocyanin (APC)-conjugated HLA-peptide multimer (ProImmune Ltd., Oxford, UK) by incubation for 30 minutes at room temperature. Cells were then washed and incubated with Cy5.5-PerCP conjugated anti-human CD8 mAb (BioLegend, San Diego, Calif.) for 30 minutes at 4° C. Cells were washed, analyzed and sorted as single cells into 96-well PCR plates (Eppendorf, Hamburg, Germany) using the FACS Aria III flow cytometer (BD Biosciences).
In the case of B1, the binding result was “binds”.
B2: the binding result is listed as “binds”.
As for B3, the binding result is on record as “binds”.
Turning to B4, the binding result is reported as “binds”.
Next, B5: “binds”.
With B6, the binding result was “binds”.
With B7, the binding result is “binds”.
The entry for B8 is “binds”; for B9 it is “binds”.
